# Where a chain is given by its changes, count along the chain named.
# Columns and labels:
# Assay in all cases: ITC
# [1] = target: T1, mRBM20(513-621) (Mus musculus, UniProt Q3UQS8 513-621)
# T1 sequence: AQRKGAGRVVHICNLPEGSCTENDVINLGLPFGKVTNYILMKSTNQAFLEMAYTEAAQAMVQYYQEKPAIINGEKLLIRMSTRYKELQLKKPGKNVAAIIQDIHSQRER
# [2] = target: T2, mRBM20(513-609) delta-alpha3 (Mus musculus, UniProt Q3UQS8 513-609)
# T2 sequence: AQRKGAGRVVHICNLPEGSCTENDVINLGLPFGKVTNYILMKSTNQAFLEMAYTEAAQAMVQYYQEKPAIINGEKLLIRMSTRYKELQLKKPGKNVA
# [3] = target: T3, mRBM20(513-621) N526A (Mus musculus, UniProt Q3UQS8 513-621, N526A)
# T3 sequence: T1 sequence with N14A
# [4] = target: T4, mRBM20(513-621) Q558A (Mus musculus, UniProt Q3UQS8 513-621, Q558A)
# T4 sequence: T1 sequence with Q46A
# [5] = target: T5, mRBM20(513-649) +RS (Mus musculus, UniProt Q3UQS8 513-649)
# T5 sequence: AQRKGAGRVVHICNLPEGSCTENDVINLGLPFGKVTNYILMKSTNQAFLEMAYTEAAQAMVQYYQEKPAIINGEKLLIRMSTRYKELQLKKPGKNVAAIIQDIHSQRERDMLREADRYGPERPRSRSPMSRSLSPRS
# [6] = target: T6, mRBM20(513-621) R595M (Mus musculus, UniProt Q3UQS8 513-621, R595M)
# T6 sequence: T1 sequence with R83M
# [7] = target: T7, mRBM20(513-621) H523A (Mus musculus, UniProt Q3UQS8 513-621, H523A)
# T7 sequence: T1 sequence with H11A
# [8] = target: T8, mRBM20(513-621) Q577A (Mus musculus, UniProt Q3UQS8 513-621, Q577A)
# T8 sequence: T1 sequence with Q65A
# [9] = target: T9, mRBM20(513-621) Y596A (Mus musculus, UniProt Q3UQS8 513-621, Y596A)
# T9 sequence: T1 sequence with Y84A
# [10] = target: T10, mRBM20(513-621) F560A (Mus musculus, UniProt Q3UQS8 513-621, F560A)
# T10 sequence: T1 sequence with F48A
# [11] = target: T11, mRBM20(513-621) V537I (Mus musculus, UniProt Q3UQS8 513-621, V537I)
# T11 sequence: T1 sequence with V25I
# [12] = target: T12, mRBM20(513-621) R591M (Mus musculus, UniProt Q3UQS8 513-621, R591M)
# T12 sequence: T1 sequence with R79M
binder,measurement,setting,value
GGGACCUGGUCUUUCCAGGUCCC (structured_RNA) [vIRES-SL],Kd,[1],8 ± 1 µM
AUCCUA (ssRNA),Kd,[1],210 ± 3 µM
AUCUUA (ssRNA),Kd,[2],43 ± 1 µM
same,Kd,[3],9 ± 1 µM
same,Kd,[4],3.4 ± 0.7 µM
same,Kd,[5],4.3 ± 0.4 µM
same,Kd,[6],29.3 ± 0.3 µM
same,Kd,[1],5.7 ± 0.2 µM
same,Kd,[7],67 ± 12 µM
same,Kd,[8],6.6 ± 0.8 µM
same,Kd,[9],74 ± 13 µM
same,Kd,[10],156 ± 6 µM
same,Kd,[11],10.3 ± 0.7 µM
same,Kd,[12],12.4 ± 0.6 µM
AUCUCA (ssRNA),Kd,[1],95 ± 1 µM
ACCUUA (ssRNA),Kd,[1],13 ± 2 µM
AUCUUG (ssRNA),Kd,[1],4.8 ± 0.1 µM
AUUUUA (ssRNA),Kd,[1],140 ± 30 µM
GUCUUA (ssRNA),Kd,[1],4 ± 0.1 µM
